Test results from publication PMC6753080.

Assays:
[1] = biological target: 6xHis-MBP-ERC1 fusion protein (mouse); assay: rotary shadowing electron microscopy; purified MBP-ERC1 diluted in spraying buffer (100 mM ammonium acetate, 30% glycerol), sprayed onto mica, platinum and carbon coated
[2] = biological target: 6xHis-MBP-ERC1 fusion protein (mouse); assay: static light scattering; purified ERC1 on a Viskotek TDAMax system; data averaged across the protein elution volume; protein purified in 20 mM HEPES pH 7.4, 250 mM NaCl, 0.5 mM TCEP
GFP-ERC1 (mouse) = assay: Numbers & Brightness; cytoplasm of living COS7 cells expressing GFP-ERC1; brightness compared with monomeric and dimeric GFP; confocal time series of 300 images

GFP-ERC1, sequence (Q99MI1 whole entry): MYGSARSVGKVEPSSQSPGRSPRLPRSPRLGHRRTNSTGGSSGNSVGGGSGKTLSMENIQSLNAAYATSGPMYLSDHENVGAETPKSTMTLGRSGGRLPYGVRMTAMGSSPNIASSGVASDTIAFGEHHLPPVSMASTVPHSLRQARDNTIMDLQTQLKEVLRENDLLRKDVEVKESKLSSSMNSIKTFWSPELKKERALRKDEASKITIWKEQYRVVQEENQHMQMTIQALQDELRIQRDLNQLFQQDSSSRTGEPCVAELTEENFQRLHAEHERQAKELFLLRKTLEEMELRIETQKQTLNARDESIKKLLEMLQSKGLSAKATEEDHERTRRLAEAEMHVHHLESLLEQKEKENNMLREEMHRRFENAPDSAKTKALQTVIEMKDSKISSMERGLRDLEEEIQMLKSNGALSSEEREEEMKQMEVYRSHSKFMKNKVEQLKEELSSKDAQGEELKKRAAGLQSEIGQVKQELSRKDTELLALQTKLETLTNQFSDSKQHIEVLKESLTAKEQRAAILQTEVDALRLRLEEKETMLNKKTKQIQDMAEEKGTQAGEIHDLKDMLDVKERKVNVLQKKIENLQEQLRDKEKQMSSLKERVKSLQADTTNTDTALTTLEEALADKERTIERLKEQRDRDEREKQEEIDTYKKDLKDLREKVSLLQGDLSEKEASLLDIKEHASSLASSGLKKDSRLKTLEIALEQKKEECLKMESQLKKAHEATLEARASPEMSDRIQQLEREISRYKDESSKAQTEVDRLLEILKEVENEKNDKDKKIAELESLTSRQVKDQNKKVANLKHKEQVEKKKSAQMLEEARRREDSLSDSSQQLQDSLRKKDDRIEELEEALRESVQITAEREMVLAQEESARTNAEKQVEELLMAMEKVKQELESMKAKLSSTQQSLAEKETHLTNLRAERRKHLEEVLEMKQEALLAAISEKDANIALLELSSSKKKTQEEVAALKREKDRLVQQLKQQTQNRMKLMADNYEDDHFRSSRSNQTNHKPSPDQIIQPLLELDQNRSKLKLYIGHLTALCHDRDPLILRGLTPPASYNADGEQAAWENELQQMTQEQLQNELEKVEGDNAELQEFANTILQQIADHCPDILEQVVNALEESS

Row | Substance | stoichiometry N [1] | stoichiometry N [2] | brightness ratio to monomeric GFP (GFP-ERC1 (mouse)) | stoichiometry N (GFP-ERC1 (mouse))
1 | 6xHis-MBP-ERC1 fusion protein (natural protein) | 2 | 2 | – | –
2 | GFP-ERC1 (natural protein) | – | – | 2.1 | 2
